The text below walks through data of paper PMC4374754.

Assay [1] addresses RecA D112R, fluorescein-labelled (E. coli). Briefly: fluorescence polarisation; 20 nM fluorescein-labelled RecA titrated with pol V in solution, no ssDNA (inactive complex); pol V standard reaction buffer (20 mM Tris pH 7.5, 8 mM MgCl2, 5 mM DTT, 0.1 mM EDTA, 25 mM sodium glutamate, 4% glycerol), 25°C; apparent Kd, one-site specific binding. For orientation: In fluorescence polarisation assays a small probe gives low polarisation when free and higher when bound to something large.

For assay [2], the target named is RecA D112R N113R, fluorescein-labelled (E. coli). Described as above.
Assay [3] concerns the target RecA D112R (E. coli).

B1: DNA polymerase V (UmuD′2C) (complex)
chain 1: MFALCDVNAFYASCETVFRPDLWGKPVVVLSNNDGCVIARNAEAKALGVKMGDPWFKQKDLFRRCGVVCFSSNYELYADMSNRVMSTLEELSPRVEIYSIDEAFCDLTGVRNCRDLTDFGREIRATVLQRTHLTVGVGIAQTKTLAKLANHAAKKWQRQTGGVVDLSNLERQRKLMSALPVDDVWGIGRRISKKLDAMGIKTVLDLADTDIRFIRKHFNVVLERTVRELRGEPCLQLEEFAPTKQEIICSRSFGERITDYPSMRQAICSYAARAAEKLRSEHQYCRFISTFIKTSPFALNEPYYGNSASVKLLTPTQDSRDIINAATRSLDAIWQAGHRYQKAGVMLGDFFSQGVAQLNLFDDNAPRPGSEQLMTVMDTLNAKEGRGTLYFAGQGIQQQWQMKRAMLSPRYTTRSSDLLRVK
chain 2: GFPSPAADYVEQRIDLNQLLIQHPSATYFVKASGDSMIDGGISDGDLLIVDSAITASHGDIVIAAVDGEFTVKKLQLRPTVQLIPMNSAYSPITISSEDTLDVFGVVIHVVKAMR
As to B1, the Kd in assay [1] and in assay [2] was 0.25 µM in each case. Further, the primer utilization in the pol V transactivation assay (RecA* on poly dT, hairpin primer-template, 1 h at 37°C) in assay [3] turned out to be 27%.
